Broadly, the pKd is the Kd on a negative log10 scale, so that one unit is a factor of ten.

pKd: −log10 of the molar value. Some results are limits rather than exact numbers.

Data on 39 sequences can be found in the Immune Epitope Database (IEDB).

Holding throughout (test): IEDB peptide-MHC binding, purified MHC/competitive/radioactivity; filed as Kd, often an IC50 or EC50 that approximates it; ≥ and ≤ were set here for values at or beyond the usual limits of such assays
Assay [1] deals with HLA-A*02:06.
The target of assay [2] is HLA-A*02:02.
Assay [3] concerns the target HLA-A*02:03.
The target of assay [4] is HLA-A*03:01. Particulars: source organism: Vaccinia virus WR.
The target of assay [5] is HLA-A*33:01. Particulars: source organism: Vaccinia virus WR.
The target in assay [6] is HLA-A*11:01. To be noted: source organism: Vaccinia virus WR.
In assay [7] the target is HLA-A*68:01. Particulars: source organism: Vaccinia virus WR.
Assay [8] has as its target HLA-A*31:01. To be noted: source organism: Vaccinia virus WR.
Setting [9] is: source organism: Vaccinia virus WR.
[10] abbreviates: source organism: SARS coronavirus Tor2.
Setting [11] is: source organism: Mammarenavirus guanaritoense.
Where [12] appears, read: source organism: Dengue virus 2 16681-PDK53.
Setting [13] is: source organism: Dengue virus 2 Jamaica/1409/1983.
Where [14] appears, read: source organism: Vaccinia virus Copenhagen.

With DTDIVNNFIT, the pKd in assay [1] (setting [9]) was 5.64; in assay [2] (setting [9]), 5.07; in assay [3] (setting [9]) it was 5.25.

Consider RIKSVLDII, for which the figures for the pKd in assay [1] (setting [9]), in assay [2] (setting [9]) and in assay [3] (setting [9]) were 5.68, 6.95 and 7.75, respectively.

In the case of IVDKFGKNHI, the results for the pKd in assay [1] (setting [9]), in assay [2] (setting [9]) and in assay [3] (setting [9]) were 5.08, 5.53 and 5.29, respectively.

Take AAIDRQVSV: the pKd in assay [1] (setting [9]) is 7.83; in assay [2] (setting [9]), 6.03; in assay [3] (setting [9]) it was 7.73.

For PLPNFSSLNL, the pKd in assay [1] (source organism: Homo sapiens) was at most 4.25.

As to SVDVDIYDA, the results for the negative logarithm of the Kd (pKd) in assay [1] (setting [9]), in assay [2] (setting [9]) and in assay [3] (setting [9]) were 6.02, 5.92 and 4.92, respectively.

Take KIILFLTLI: the figures for the pKd in assay [1] (setting [10]), in assay [2] (setting [10]) and in assay [3] (setting [10]) were 7.61, 7.17 and 8.31, respectively.

As for SASDMQKFTI, the pKd is 5.37 in assay [1] (setting [9]), 4.97 in assay [2] (setting [9]) and 5.91 in assay [3] (setting [9]).

On to LALTDVEKRI, for which the pKd was 5.62 in assay [1] (setting [9]), 6.70 in assay [2] (setting [9]) and 6.39 in assay [3] (setting [9]).

For the sequence DLMSSKDDV, the pKd in assay [1] (source organism: Homo sapiens) is at most 3.88.

As for LCFWSAIFFT, the pKd in assay [1] (setting [11]) is at most 4.46; in assay [2] (setting [11]), 5.59; in assay [3] (setting [11]), at most 4.52.

As for MLWCKDGHV, the negative-log Kd (pKd) in assay [1] (setting [10]) was 6.44; in assay [2] (setting [10]) it was 7.99; in assay [3] (setting [10]), 7.96.

Take FTYASALWEI: the pKd in assay [1] (setting [10]) is 8.60; in assay [2] (setting [10]) it was 8.80; in assay [3] (setting [10]), 8.22.

As for ILNPYMPSVV, the pKd in assay [3] (source organism: Dengue virus 1 Brazil/97-11/1997) was 8.49.

As for VLTSVDIETA, the pKd in assay [1] (setting [9]) was 5.85; in assay [2] (setting [9]), 7.20; in assay [3] (setting [9]), 6.38.

As for VMYAFTTPLI, the pKd in assay [1] (setting [9]) is 7.94; in assay [2] (setting [9]), 9.14; in assay [3] (setting [9]), 8.32.

Regarding LLFLVLIML, the figures for the pKd in assay [1] (setting [10]), in assay [2] (setting [10]) and in assay [3] (setting [10]) were 6.24, 6.81 and 5.86, respectively.

As to PLPVSRLVSL, in assay [3] (source organism: Homo sapiens), the pKd is 4.78.

Regarding SLGKAVHQV, the pKd in assay [3] (source organism: Dengue virus 4 Philippines/H241/1956) is 7.84.

Consider PTLFGRGVI, for which the negative logarithm of the Kd (pKd) in assay [1] (setting [9]) was at most 4.19; in assay [2] (setting [9]), at most 4.52; in assay [3] (setting [9]), 5.17.

For TMSIYIAVA, the values for the pKd in assay [1] (setting [9]), in assay [2] (setting [9]) and in assay [3] (setting [9]) were 6.10, 7.09 and 7.39, respectively.

Regarding TIAVSVYGA, the negative-log Kd (pKd) is 7.01 in assay [1] (setting [9]), 7.60 in assay [2] (setting [9]) and 8.00 in assay [3] (setting [9]).

Take NLYISDYKM: the results for the negative-log Kd (pKd) in assay [1] (setting [9]), in assay [2] (setting [9]) and in assay [3] (setting [9]) were 4.96, 5.55 and at most 4.60, respectively.

Consider SARALKAYFT, for which the pKd in assay [1] (setting [9]) is at most 4.59; in assay [2] (setting [9]) it was at most 4.67; in assay [3] (setting [9]) it was 5.11.

KVYNGIFVDT: the results for the pKd in assay [1] (setting [9]), in assay [2] (setting [9]) and in assay [3] (setting [9]) were 4.79, 6.95 and 5.84, respectively.

Consider IVTFINDYA, for which the results for the pKd in assay [1] (setting [9]), in assay [2] (setting [9]) and in assay [3] (setting [9]) were 5.94, 6.85 and 5.53, respectively.

On to KVSCTILAV, for which the pKd in assay [1] (setting [12]) was 7.74; in assay [3] (setting [12]), 7.24.

Consider ATLNTLITLI, for which the figures for the pKd in assay [1] (setting [9]), in assay [2] (setting [9]) and in assay [3] (setting [9]) were 6.70, 7.50 and 7.55, respectively.

On to MMQNDYGGM, for which the negative-log Kd (pKd) is 5.78 in assay [1] (setting [9]), 5.97 in assay [2] (setting [9]) and 5.56 in assay [3] (setting [9]).

As to LLATVTGGI, the pKd in assay [3] (setting [13]) is 8.44.

With VLIAGIILLI, the pKd in assay [1] (setting [14]) was 5.99; in assay [2] (setting [14]) it was 8.05; in assay [3] (setting [14]), 7.46.

On to GLSQRHEEKV, for which the pKd in assay [1] (source organism: Homo sapiens) was at most 4.27.

Consider DAKRNSKSLV, for which the pKd in assay [1] (setting [9]) was at most 4.28; in assay [2] (setting [9]), 4.88; in assay [3] (setting [9]) it was 5.54.

AIMAVGMVSI: the pKd in assay [3] (setting [13]) was 7.24.

For LMMATIGIA, the negative-log Kd (pKd) in assay [3] (setting [13]) is 9.31.

Take TLNGIMMNER: the pKd in assay [4] was 6.65; in assay [5], 5.84; in assay [6], 5.88; in assay [7], 6.13; in assay [8], 6.97.

On to VQADSGCVV, for which, in assay [1] (setting [13]), the pKd is 7.10.

On to SFKSINKVY, for which the pKd in assay [4] was 5.74; in assay [5], at most 4.11; in assay [6] it was 5.56; in assay [7] it was 5.16; in assay [8] it was 5.67.

SSKGLACYR: the negative logarithm of the Kd (pKd) in assay [4] is 4.89; in assay [5], 7.59; in assay [6] it was 7.09; in assay [7], 8.27; in assay [8] it was 7.42.
